T1: APBA2_1, Q99767
T1 sequence (Q99767 563-664, limits assumed, looked up): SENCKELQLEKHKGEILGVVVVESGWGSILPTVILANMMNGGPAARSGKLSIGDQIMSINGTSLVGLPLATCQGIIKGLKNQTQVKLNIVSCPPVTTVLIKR

T2: APBA2_2, Q99767
T2 sequence (Q99767 654-744, limits assumed, looked up): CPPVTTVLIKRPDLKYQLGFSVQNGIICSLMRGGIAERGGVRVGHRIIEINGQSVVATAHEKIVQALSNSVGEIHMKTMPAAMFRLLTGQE

T3: CARD11, Q9BXL7
T3 sequence (Q9BXL7 662-765, limits assumed, looked up): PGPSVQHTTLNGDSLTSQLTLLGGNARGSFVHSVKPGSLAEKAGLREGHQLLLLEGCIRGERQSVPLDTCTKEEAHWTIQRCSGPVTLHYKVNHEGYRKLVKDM

T4: DVL3, Q92997
T4 sequence (Q92997 244-331, limits assumed, looked up): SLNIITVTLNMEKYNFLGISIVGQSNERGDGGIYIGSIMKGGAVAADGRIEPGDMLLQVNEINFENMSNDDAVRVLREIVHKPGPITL

T5: FRMPD1, Q5SYB0
T5 sequence (Q5SYB0 52-145, limits assumed, looked up): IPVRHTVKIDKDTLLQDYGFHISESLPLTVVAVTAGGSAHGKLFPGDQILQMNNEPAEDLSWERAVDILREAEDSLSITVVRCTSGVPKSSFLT

T6: GRIP1_7, Q9Y3R0
T6 sequence (Q9Y3R0 999-1096, limits assumed, looked up): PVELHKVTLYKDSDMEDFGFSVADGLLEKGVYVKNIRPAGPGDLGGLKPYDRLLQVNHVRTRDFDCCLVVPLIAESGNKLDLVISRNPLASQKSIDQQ

T7: HTRA4, P83105
T7 sequence (P83105 378-476, limits assumed, looked up): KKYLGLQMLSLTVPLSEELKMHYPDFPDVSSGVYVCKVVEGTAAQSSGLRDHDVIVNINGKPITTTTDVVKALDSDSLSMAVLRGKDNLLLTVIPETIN

T8: LNX2_2, Q8N448
T8 sequence (Q8N448 334-432, limits assumed, looked up): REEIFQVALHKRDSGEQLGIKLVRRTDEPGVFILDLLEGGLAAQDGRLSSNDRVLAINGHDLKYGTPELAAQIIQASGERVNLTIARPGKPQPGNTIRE

T9: MPDZ_12, O75970
T9 sequence (O75970 1857-1958, limits assumed, looked up): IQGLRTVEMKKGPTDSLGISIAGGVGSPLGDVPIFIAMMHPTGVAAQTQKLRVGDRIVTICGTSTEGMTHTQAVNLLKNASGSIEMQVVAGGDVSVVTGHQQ

T10: MPP2, Q14168
T10 sequence (Q14168 180-250, limits assumed, looked up): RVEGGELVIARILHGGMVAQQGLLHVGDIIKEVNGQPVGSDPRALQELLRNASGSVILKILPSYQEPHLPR

T11: MPP7, Q5T2T1
T11 sequence (Q5T2T1 134-230, limits assumed, looked up): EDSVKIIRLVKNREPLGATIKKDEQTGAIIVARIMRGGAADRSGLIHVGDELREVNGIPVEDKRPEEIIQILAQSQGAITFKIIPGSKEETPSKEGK

T12: NHERF3_3, Q5T2W1
T12 sequence (Q5T2W1 238-333, limits assumed, looked up): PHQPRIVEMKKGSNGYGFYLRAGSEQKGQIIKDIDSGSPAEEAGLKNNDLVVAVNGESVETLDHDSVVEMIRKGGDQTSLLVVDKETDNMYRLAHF

T13: PDZD7_3, Q9H5P4
T13 sequence (Q9H5P4 857-944, limits assumed, looked up): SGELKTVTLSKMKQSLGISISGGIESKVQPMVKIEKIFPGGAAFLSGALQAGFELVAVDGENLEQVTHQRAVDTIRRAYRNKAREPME

T14: SNTG1, Q9NSN8
T14 sequence (Q9NSN8 52-150, limits assumed, looked up): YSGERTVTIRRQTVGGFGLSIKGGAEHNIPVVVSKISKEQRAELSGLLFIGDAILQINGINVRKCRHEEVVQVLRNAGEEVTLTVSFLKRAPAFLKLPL

T15: TIAM2, Q8IVF5
T15 sequence (Q8IVF5 885-986, limits assumed, looked up): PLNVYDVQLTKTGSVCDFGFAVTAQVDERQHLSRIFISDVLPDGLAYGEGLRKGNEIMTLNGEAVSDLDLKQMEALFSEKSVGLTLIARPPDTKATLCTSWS

B1: SORCS3, Q9UPU3 (peptide)
chain: TKEIPNCTSV

The binders below were run against AHNAK1, Q09666 (assay: holdup assay). Conditions: plain residues with an end cap or a label only (N-terminal biotin on a linker: ado-ado).
AHNAK1, Q09666, sequence (Q09666 4-100): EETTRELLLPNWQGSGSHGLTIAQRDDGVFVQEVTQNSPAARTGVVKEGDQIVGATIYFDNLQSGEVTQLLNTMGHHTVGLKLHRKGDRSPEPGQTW
Design: key: below the threshold = too weak to quantify, mostly under pKd 3.1 to 4
In the case of B1, the pKd is reported as “below the threshold”.

Each binder was assayed against T1, APBA2_1, Q99767 (assay: holdup assay). Conditions: plain residues with an end cap or a label only (N-terminal biotin on a linker: ado-ado).
Design: key: below the threshold = too weak to quantify, mostly under pKd 3.1 to 4
With B1 the pKd was “below the threshold”.

These binders were tested against T2, APBA2_2, Q99767 (assay: holdup assay). Conditions: plain residues with an end cap or a label only (N-terminal biotin on a linker: ado-ado).
Design: key: below the threshold = too weak to quantify, mostly under pKd 3.1 to 4
For B1, the pKd was “below the threshold”.

The binders below were run against ARHGEF12, Q9NZN5-2 (assay: holdup assay). Conditions: plain residues with an end cap or a label only (N-terminal biotin on a linker: ado-ado).
ARHGEF12, Q9NZN5-2, sequence (Q9NZN5 other isoform, or with tags, fused parts or gaps): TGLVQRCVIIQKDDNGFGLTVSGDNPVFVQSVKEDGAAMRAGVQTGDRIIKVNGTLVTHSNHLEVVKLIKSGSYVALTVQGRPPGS
Design: key: below the threshold = too weak to quantify, mostly under pKd 3.1 to 4
A pKd of 4.54 was found for B1 in this work.

Each binder was assayed against T3, CARD11, Q9BXL7 (assay: holdup assay). Conditions: plain residues with an end cap or a label only (N-terminal biotin on a linker: ado-ado).
Design: key: below the threshold = too weak to quantify, mostly under pKd 3.1 to 4
For B1, the pKd was “below the threshold”.

What follows are binders tested against T4, DVL3, Q92997 (assay: holdup assay). Conditions: plain residues with an end cap or a label only (N-terminal biotin on a linker: ado-ado).
Design: key: below the threshold = too weak to quantify, mostly under pKd 3.1 to 4
With B1 the pKd was “below the threshold”.

The binders below were run against T5, FRMPD1, Q5SYB0 (assay: holdup assay). Conditions: plain residues with an end cap or a label only (N-terminal biotin on a linker: ado-ado).
Design: key: below the threshold = too weak to quantify, mostly under pKd 3.1 to 4
In the case of B1, the pKd is reported as “below the threshold”.

Each binder was assayed against T6, GRIP1_7, Q9Y3R0 (assay: holdup assay). Conditions: plain residues with an end cap or a label only (N-terminal biotin on a linker: ado-ado).
Design: key: below the threshold = too weak to quantify, mostly under pKd 3.1 to 4
In the case of B1, the pKd is reported as “below the threshold”.

Each binder was assayed against GRIP2_3, Q9C0E4 (assay: holdup assay). Conditions: plain residues with an end cap or a label only (N-terminal biotin on a linker: ado-ado).
GRIP2_3, Q9C0E4, sequence (Q9C0E4 238-339): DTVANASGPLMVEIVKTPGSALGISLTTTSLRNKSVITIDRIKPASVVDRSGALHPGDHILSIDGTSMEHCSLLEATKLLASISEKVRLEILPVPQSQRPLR
Design: key: below the threshold = too weak to quantify, mostly under pKd 3.1 to 4
B1 was tested, and the pKd was “below the threshold”.

What follows are binders tested against T7, HTRA4, P83105 (assay: holdup assay). Conditions: plain residues with an end cap or a label only (N-terminal biotin on a linker: ado-ado).
Design: key: below the threshold = too weak to quantify, mostly under pKd 3.1 to 4
A pKd of 4.44 was found for B1 in this work.

These binders were tested against Inadl_3, Q8NI35 (assay: holdup assay). Conditions: plain residues with an end cap or a label only (N-terminal biotin on a linker: ado-ado).
Inadl_3, Q8NI35, sequence (Q8NI35 359-469): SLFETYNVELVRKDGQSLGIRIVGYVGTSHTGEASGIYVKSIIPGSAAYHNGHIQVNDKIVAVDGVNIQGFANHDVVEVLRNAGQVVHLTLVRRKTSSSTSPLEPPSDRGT
Design: key: below the threshold = too weak to quantify, mostly under pKd 3.1 to 4
With B1 the pKd was “below the threshold”.

The binders below were run against LIMK2, P53671 (assay: holdup assay). Conditions: plain residues with an end cap or a label only (N-terminal biotin on a linker: ado-ado).
LIMK2, P53671, sequence (P53671 143-248): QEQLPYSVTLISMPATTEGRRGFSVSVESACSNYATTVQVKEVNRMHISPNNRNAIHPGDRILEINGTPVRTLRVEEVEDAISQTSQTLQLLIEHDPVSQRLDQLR
Design: key: below the threshold = too weak to quantify, mostly under pKd 3.1 to 4
B1 was tested, and the pKd was “below the threshold”.

The binders below were run against T8, LNX2_2, Q8N448 (assay: holdup assay). Conditions: plain residues with an end cap or a label only (N-terminal biotin on a linker: ado-ado).
Design: key: below the threshold = too weak to quantify, mostly under pKd 3.1 to 4
A pKd of 4.52 was found for B1 in this work.

The binders below were run against MAST2, Q6P0Q8 (assay: holdup assay). Conditions: plain residues with an end cap or a label only (N-terminal biotin on a linker: ado-ado).
MAST2, Q6P0Q8, sequence (Q6P0Q8 1099-1202): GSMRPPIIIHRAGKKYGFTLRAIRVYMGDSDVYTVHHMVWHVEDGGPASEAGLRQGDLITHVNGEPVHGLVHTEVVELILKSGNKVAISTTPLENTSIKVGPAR
Design: key: below the threshold = too weak to quantify, mostly under pKd 3.1 to 4
A pKd of 5.82 was found for B1 in this work.

The binders below were run against T9, MPDZ_12, O75970 (assay: holdup assay). Conditions: plain residues with an end cap or a label only (N-terminal biotin on a linker: ado-ado).
Design: key: below the threshold = too weak to quantify, mostly under pKd 3.1 to 4
A pKd of 3.84 was found for B1 in this work.

These binders were tested against T10, MPP2, Q14168 (assay: holdup assay). Conditions: plain residues with an end cap or a label only (N-terminal biotin on a linker: ado-ado).
Design: key: below the threshold = too weak to quantify, mostly under pKd 3.1 to 4
B1 was tested, and the pKd was “below the threshold”.

These binders were tested against T11, MPP7, Q5T2T1 (assay: holdup assay). Conditions: plain residues with an end cap or a label only (N-terminal biotin on a linker: ado-ado).
Design: key: below the threshold = too weak to quantify, mostly under pKd 3.1 to 4
With B1 the pKd was “below the threshold”.

What follows are binders tested against T12, NHERF3_3, Q5T2W1 (assay: holdup assay). Conditions: plain residues with an end cap or a label only (N-terminal biotin on a linker: ado-ado).
Design: key: below the threshold = too weak to quantify, mostly under pKd 3.1 to 4
In the case of B1, the pKd is reported as “below the threshold”.

The binders below were run against T13, PDZD7_3, Q9H5P4 (assay: holdup assay). Conditions: plain residues with an end cap or a label only (N-terminal biotin on a linker: ado-ado).
Design: key: below the threshold = too weak to quantify, mostly under pKd 3.1 to 4
A pKd of 4.82 was found for B1 in this work.

These binders were tested against SCRIB_1, Q14160 (assay: holdup assay). Conditions: plain residues with an end cap or a label only (N-terminal biotin on a linker: ado-ado).
SCRIB_1, Q14160, sequence (Q14160 718-814): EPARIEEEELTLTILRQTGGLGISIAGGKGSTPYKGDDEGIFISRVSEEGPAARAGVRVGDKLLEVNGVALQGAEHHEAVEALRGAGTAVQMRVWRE
Design: key: below the threshold = too weak to quantify, mostly under pKd 3.1 to 4
A pKd of 4.53 was found for B1 in this work.

What follows are binders tested against T14, SNTG1, Q9NSN8 (assay: holdup assay). Conditions: plain residues with an end cap or a label only (N-terminal biotin on a linker: ado-ado).
Design: key: below the threshold = too weak to quantify, mostly under pKd 3.1 to 4
A pKd of 4 was found for B1 in this work.

The binders below were run against T15, TIAM2, Q8IVF5 (assay: holdup assay). Conditions: plain residues with an end cap or a label only (N-terminal biotin on a linker: ado-ado).
Design: key: below the threshold = too weak to quantify, mostly under pKd 3.1 to 4
In the case of B1, the pKd is reported as “below the threshold”.

Each binder was assayed against TJP1_2, Q07157 (assay: holdup assay). Conditions: plain residues with an end cap or a label only (N-terminal biotin on a linker: ado-ado).
TJP1_2, Q07157, sequence (Q07157 181-274): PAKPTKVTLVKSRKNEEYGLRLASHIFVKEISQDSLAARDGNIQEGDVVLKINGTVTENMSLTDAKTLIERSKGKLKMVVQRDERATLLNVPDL
Design: key: below the threshold = too weak to quantify, mostly under pKd 3.1 to 4
With B1 the pKd was “below the threshold”.
